# In the supplement of paper PMC12764529:
# ± gives the half width of the 95% confidence interval.
# How the values were obtained:
# [1] = folding stability dG unfold from trypsin proteolysis; higher = more stable
# Outline: (§1)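 Unfolding free energy was derived, per protease or combined, by relating Bayesian-fitted K50 values from sequencing counts to a sequence-predicted unfolded-state K50 and a shared folded-state K50. The underlying digests exposed cysteine-free mini-proteins under 80 residues, in a PA-tagged cDNA display construct, to trypsin and chymotrypsin at 11 threefold-diluted concentrations and to a no-protease condition. A filter kept only designs with AlphaFold2 dimer inter-PAE above 15.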
# [2] = folding stability dG unfold from chymotrypsin proteolysis; higher = more stable
# Outline: as §1
# [3] = folding stability dG unfold (combined trypsin and chymotrypsin); higher = more stable
# Outline: as §1
Sequence,folding stability dG unfold [1] [kcal/mol],folding stability dG unfold [2] [kcal/mol],folding stability dG unfold [3] [kcal/mol]
SANPALYQWVTTDVVLPFETEEEALAAVEALAAARAAATGATVTVSVEVERLPDGLRVRVPVTTLVPLLSAG [r14_626_JUSTAS],1.05 ± 0.012,0.984 ± 0.099,1.05 ± 0.046
SAGGSAGGSSPVKQVTEVKDPHSSLPLLRTTETLVLPNGEVVTKVKFIDTKTGKSTEEIFTIPSAGGSAGGS [r20_229_JUSTAS],0.724 ± 0.046,1.02 ± 0.13,0.833 ± 0.089
SAGGSAGGSMRIKFEFKIGDKWVEEEIPADLSQLPLSEIKKKHPKAEYKIEIEDEEGNWTPLLSAGGSAGGS [r12_540_JUSTAS],0.262 ± 0.11,1.04 ± 0.1,0.767 ± 0.12
SMKTLIVEGMTPEEIRALAEEAAKKGEEVEIEIVVKDNEEIKEALEEAGVEVEEVEDPETKEKVLKVTVKSA [r9_759_TrROS_Hall],0.254 ± 0.044,0.412 ± 0.072,0.327 ± 0.14
SAMTLTLEIELDGVRVRLEAELELVLNEDGSLELKLKLKIEVEPLPPPKEVEVEEEEEEVEEVEFLPEESAG [r14_341_TrROS_Hall],3.82 ± 0.31,4.61 ± 0.28,4.44 ± 0.26
SAGGSAGGSALDSLVPDIDLRVRVEPVPDDPSILRADVELSDGLVLEVEFLPSGVARVSLSGKGSAGGSAGG [r6_122_TrMRF],-0.0307 ± 0.084,-0.246 ± 0.11,-0.0927 ± 0.058
SAGGSAGGSAMQRDPDGKPQPQVTFRIPADDMPEEQIKKHLPPEFADNFRDNMPEGDTITLSAGGSAGGSAG [r3_326_TrROS],-0.688 ± 0.19,-0.105 ± 0.25,-0.239 ± 0.14
SAGGKLTPEEIEELAKKLAEELRKEGKEVEIEVEIEVDGKLIKIKMKIDPKTKKIEIVKIEVYPKEDLSAGG [r13_37_TrROS_Hall],3.9 ± 0.14,2.93 ± 0.092,3.58 ± 0.21
SAGGSAGGSAGGALEEKAKEIIEELKKKGIKVKEVKTSPNEITITFEDGSTKKIPIINGSAGGSAGGSAGGS [r10_169_JUSTAS],2.55 ± 0.12,2.54 ± 0.16,2.66 ± 0.1
SAGGSAMSVDPVGERTTITILYKDKPVTVPTGPLEEVEREVAAVLEEIEAKTGRKISPDTEVSFVPSAGGSA [r15_496_JUSTAS],-0.283 ± 0.3,0.595 ± 0.17,0.318 ± 0.16
SAGGSAPVTEGPNSITVTRDLDPSESEEEVRALAEEILAALPADVSVSVEFDPETGTATITITFPGSAGGSA [r15_210_JUSTAS],2.31 ± 0.054,1.95 ± 0.051,2.15 ± 0.055
SAGGSAGGSMKITKIEVEENEDGTLTVRLELEFVDPETKETYRVELEITVSKEELEKLLEALKSAGGSAGGS [r12_691_TrROS_Hall],3.03 ± 0.12,4.09 ± 0.21,3.9 ± 0.23
SAGGSAGGSELPDGPALVVLPINSKPVVALAKVNSTGKIEVYIPNPGKKFTFDLDQAEVYPVLSAGGSAGGS [r12_782_TrMRF],-0.1 ± 0.082,0.533 ± 0.1,0.35 ± 0.061
SAGGMTLNITVEIPGLGTTITKTFSANPSDYEKIARETEEENPEYKLTSVKVTYSPNSITIDATVELVSAGG [r13_196_JUSTAS],1.38 ± 0.17,2.38 ± 0.057,2.04 ± 0.21
SAGGSADVVLVEVRPPVLDPEGRPLLTLVLRLPDGGSRTLVVELSDLAGALANLPPNVRVDEIRPLSAGGSA [r15_339_TrMRF],0.443 ± 0.093,2.31 ± 0.035,2.01 ± 0.067
SAGGSAGGVKIEVETRTETLPDGSTRTVMRVKIELPAPPPPPPPPTRTVTETTEDGETRTTTVRSAGGSAGG [r6_778_TrROS_Hall],0.626 ± 0.13,2.07 ± 0.066,1.64 ± 0.17
SAMSEKDMEPIETFELPETNVKIELYYNKKTKKYVIKIKNKKTKKTKTIVIKSKDGKITLEELKKLIKKSAG [r14_948_TrROS_Hall],2.93 ± 0.24,3.42 ± 0.077,3.61 ± 0.31
SAGGSAGGMLRVRVETTLPGSGETLDLELEFPSEEEARRAIEALVPPEERAEVRVEFLPPGVPESAGGSAGG [r6_657_JUSTAS],-0.156 ± 0.37,1.44 ± 0.08,1.06 ± 0.1
SAGGSAGGTISFPNATATITVEENSVTITVTNADGQPTTFTIPLPIPKAKPFTLPDGTKLYLIASAGGSAGG [r6_806_TrMRF],1.94 ± 0.083,2.31 ± 0.16,2.31 ± 0.21
SAGGPPVAEIRVTEEDPETGVVRMEATLPEAPRPVRATGTRLDPGGGTVLVTVTDPDGGPDTTTTLAASAGG [r13_337_JUSTAS],-0.308 ± 0.1,0.221 ± 0.12,0.0684 ± 0.12
SAMKIKPGEKVKIKIEVKNKKTKKKKTIEIEVPVDEETGEVFTEDELKKLLEKLGIEVEEVKIVEIEKESAG [r14_93_TrROS_Hall],0.886 ± 0.047,0.601 ± 0.15,0.76 ± 0.21
